Assay results: PMC11066007, “CORVET-specific subunit levels determine the balance between HOPS/CORVET endosomal tethering complexes” (Scientific Reports, 2024)

Columns and labels:
Tgfbrap1-FLAG = molecular target: T1, Tgfbrap1-FLAG (human, UniProt Q8WUH2 1-860); test: co-IP; anti-FLAG beads on total lysates of HEK293 cells stably transfected with a FLAG-tagged specific subunit, with or without transient overexpression of the counterpart subunit (control: pCMV); endogenous VPS11 and VPS18 detected by western blot, densitometry with ImageJ; lysis buffer 50 mM TRIS-HCl pH 7.5, 150 mM NaCl, 1% Triton X-100, 5 mM EDTA; 1.5 h at 4 °C; conditions: partners not purified
T1 construct: Tgfbrap1, human, CORVET-specific subunit; DNA region encoding the full-length protein fused with a FLAG tag; also called CORVET-specific Tgfbrap1; not shown: FLAG, C-terminal, kept
T1 sequence (looked up): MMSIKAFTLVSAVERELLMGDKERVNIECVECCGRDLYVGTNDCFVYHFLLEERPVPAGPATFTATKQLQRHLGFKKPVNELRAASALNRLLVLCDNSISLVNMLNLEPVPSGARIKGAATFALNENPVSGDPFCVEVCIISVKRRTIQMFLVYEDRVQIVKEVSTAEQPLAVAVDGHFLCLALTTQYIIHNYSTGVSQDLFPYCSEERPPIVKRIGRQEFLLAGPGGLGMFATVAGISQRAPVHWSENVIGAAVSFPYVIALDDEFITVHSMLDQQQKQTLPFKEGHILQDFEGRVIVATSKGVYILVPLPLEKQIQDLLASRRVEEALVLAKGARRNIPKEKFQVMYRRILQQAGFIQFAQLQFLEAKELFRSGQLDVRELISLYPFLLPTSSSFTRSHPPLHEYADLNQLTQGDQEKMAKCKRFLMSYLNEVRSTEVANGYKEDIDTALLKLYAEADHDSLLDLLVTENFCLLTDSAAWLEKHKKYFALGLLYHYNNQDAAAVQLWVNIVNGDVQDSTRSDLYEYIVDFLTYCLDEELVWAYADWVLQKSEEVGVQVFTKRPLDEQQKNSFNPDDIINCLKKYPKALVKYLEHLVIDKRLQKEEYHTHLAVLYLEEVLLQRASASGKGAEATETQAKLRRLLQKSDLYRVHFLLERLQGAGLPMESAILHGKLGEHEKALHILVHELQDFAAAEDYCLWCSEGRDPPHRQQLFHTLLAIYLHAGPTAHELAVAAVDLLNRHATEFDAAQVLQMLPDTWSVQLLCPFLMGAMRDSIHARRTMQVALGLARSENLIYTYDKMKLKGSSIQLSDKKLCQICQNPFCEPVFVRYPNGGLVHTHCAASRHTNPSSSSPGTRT

VPS41-FLAG = molecular target: T2, VPS41-FLAG (human, UniProt P49754 1-854); test: as above; conditions: partners not purified
T2 construct: VPS41, human, HOPS-specific subunit; DNA region encoding the full-length protein fused with a FLAG tag; The label puts FLAG after the name, but the methods say N-terminal tags were used for VPS41 and VPS39; also called HOPS-specific VPS41; source: HEK293, stably transfected (pCMV3), in lysate; not shown: FLAG, N-terminal, kept
T2 sequence (looked up): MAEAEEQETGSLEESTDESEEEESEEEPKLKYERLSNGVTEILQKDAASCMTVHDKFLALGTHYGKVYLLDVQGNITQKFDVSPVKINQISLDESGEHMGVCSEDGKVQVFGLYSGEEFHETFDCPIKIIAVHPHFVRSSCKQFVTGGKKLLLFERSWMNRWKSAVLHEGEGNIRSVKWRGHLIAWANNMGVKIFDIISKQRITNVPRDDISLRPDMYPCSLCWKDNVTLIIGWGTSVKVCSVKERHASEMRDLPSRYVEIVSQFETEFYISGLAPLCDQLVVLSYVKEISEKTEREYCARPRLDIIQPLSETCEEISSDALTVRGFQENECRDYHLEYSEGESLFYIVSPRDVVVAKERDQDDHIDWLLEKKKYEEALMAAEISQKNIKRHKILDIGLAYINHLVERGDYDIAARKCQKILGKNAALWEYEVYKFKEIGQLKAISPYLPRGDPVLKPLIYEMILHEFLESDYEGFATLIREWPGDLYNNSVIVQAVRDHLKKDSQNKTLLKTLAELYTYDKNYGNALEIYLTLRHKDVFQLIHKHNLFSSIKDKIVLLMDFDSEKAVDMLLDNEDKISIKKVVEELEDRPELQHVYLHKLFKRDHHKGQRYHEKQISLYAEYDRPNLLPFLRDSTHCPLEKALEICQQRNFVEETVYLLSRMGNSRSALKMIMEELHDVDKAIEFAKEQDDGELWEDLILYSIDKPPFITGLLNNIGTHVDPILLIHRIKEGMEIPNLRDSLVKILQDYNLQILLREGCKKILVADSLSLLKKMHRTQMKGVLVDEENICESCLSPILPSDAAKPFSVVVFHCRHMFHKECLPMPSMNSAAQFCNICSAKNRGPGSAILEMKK

Binder | relative amount bound with Vps39-HA overexpressed (control cells HEK + pCMV as reference) (Tgfbrap1-FLAG) | relative amount bound with VPS8 overexpressed (control cells HEK + pCMV as reference) (VPS41-FLAG)
VPS11 (natural protein, human (endogenous in HEK293), UniProt Q9H270 1-941, looked up, VPS11, shared class C core subunit of HOPS and CORVET, detected by anti-VPS11 western blot in anti-FLAG precipitates; also called core subunit VPS11; source: endogenous, HEK293 lysate) MAAYLQWRRFVFFDKELVKEPLSNDGAAPGATPASGSAASKFLCLPPGITVCDSGRGSLVFGDMEGQIWFLPRSLQLTGFQAYKLRVTHLYQLKQHNILASVGEDEEGINPLVKIWNLEKRDGGNPLCTRIFPAIPGTEPTVVSCLTVHENLNFMAIGFTDGSVTLNKGDITRDRHSKTQILHKGNYPVTGLAFRQAGKTTHLFVVTTENVQSYIVSGKDYPRVELDTHGCGLRCSALSDPSQDLQFIVAGDECVYLYQPDERGPCFAFEGHKLIAHWFRGYLIIVSRDRKVSPKSEFTSRDSQSSDKQILNIYDLCNKFIAYSTVFEDVVDVLAEWGSLYVLTRDGRVHALQEKDTQTKLEMLFKKNLFEMAINLAKSQHLDSDGLAQIFMQYGDHLYSKGNHDGAVQQYIRTIGKLEPSYVIRKFLDAQRIHNLTAYLQTLHRQSLANADHTTLLLNCYTKLKDSSKLEEFIKKKSESEVHFDVETAIKVLRQAGYYSHALYLAENHAHHEWYLKIQLEDIKNYQEALRYIGKLPFEQAESNMKRYGKILMHHIPEQTTQLLKGLCTDYRPSLEGRSDREAPGCRANSEEFIPIFANNPRELKAFLEHMSEVQPDSPQGIYDTLLELRLQNWAHEKDPQVKEKLHAEAISLLKSGRFCDVFDKALVLCQMHDFQDGVLYLYEQGKLFQQIMHYHMQHEQYRQVISVCERHGEQDPSLWEQALSYFARKEEDCKEYVAAVLKHIENKNLMPPLLVVQTLAHNSTATLSVIRDYLVQKLQKQSQQIAQDELRVRRYREETTRIRQEIQELKASPKIFQKTKCSICNSALELPSVHFLCGHSFHQHCFESYSESDADCPTCLPENRKVMDMIRAQEQKRDLHDQFQHQLKCSNDSFSVIADYFGRGVFNKLTLLTDPPTARLTSSLEAGLQRDLLMHSRRGT | 1.05 relative to control cells | 0.31 relative to control cells
VPS18 (natural protein, human (endogenous in HEK293), UniProt Q9P253 1-973, looked up, VPS18, shared class C core subunit of HOPS and CORVET, detected by anti-VPS18 western blot in anti-FLAG precipitates; also called core subunit VPS18; source: endogenous, HEK293 lysate) MASILDEYENSLSRSAVLQPGCPSVGIPHSGYVNAQLEKEVPIFTKQRIDFTPSERITSLVVSSNQLCMSLGKDTLLRIDLGKANEPNHVELGRKDDAKVHKMFLDHTGSHLLIALSSTEVLYVNRNGQKVRPLARWKGQLVESVGWNKALGTESSTGPILVGTAQGHIFEAELSASEGGLFGPAPDLYFRPLYVLNEEGGPAPVCSLEAERGPDGRSFVIATTRQRLFQFIGRAAEGAEAQGFSGLFAAYTDHPPPFREFPSNLGYSELAFYTPKLRSAPRAFAWMMGDGVLYGALDCGRPDSLLSEERVWEYPEGVGPGASPPLAIVLTQFHFLLLLADRVEAVCTLTGQVVLRDHFLEKFGPLKHMVKDSSTGQLWAYTERAVFRYHVQREARDVWRTYLDMNRFDLAKEYCRERPDCLDTVLAREADFCFRQRRYLESARCYALTQSYFEEIALKFLEARQEEALAEFLQRKLASLKPAERTQATLLTTWLTELYLSRLGALQGDPEALTLYRETKECFRTFLSSPRHKEWLFASRASIHELLASHGDTEHMVYFAVIMQDYERVVAYHCQHEAYEEALAVLARHRDPQLFYKFSPILIRHIPRQLVDAWIEMGSRLDARQLIPALVNYSQGGEVQQVSQAIRYMEFCVNVLGETEQAIHNYLLSLYARGRPDSLLAYLEQAGASPHRVHYDLKYALRLCAEHGHHRACVHVYKVLELYEEAVDLALQVDVDLAKQCADLPEEDEELRKKLWLKIARHVVQEEEDVQTAMACLASCPLLKIEDVLPFFPDFVTIDHFKEAICSSLKAYNHHIQELQREMEEATASAQRIRRDLQELRGRYGTVEPQDKCATCDFPLLNRPFYLFLCGHMFHADCLLQAVRPGLPAYKQARLEELQRKLGAAPPPAKGSARAKEAEGGAATAGPSREQLKADLDELVAAECVYCGELMIRSIDRPFIDPQRYEEEQLSWL | 1.31 relative to control cells | 0.69 relative to control cells
